Key:
Mdm2 [1] = target: T1, Mdm2 (Homo sapiens, UniProt Q00987); assay: In vivo sumoylation of Mdm2 in p53/Mdm2 double null cells; assay type: cell-based; design: expressed in transfected cells; host or cells: p53/Mdm2 double null cells; settings: Flag-Mdm2, HA-SUMO, p19 wt 1.5 μg each; MG132
Description: FIGS. 10A-10D. A. Time dependent Mdm2 sumoylation in vitro. Bacterially expressed and purified GST-Mdm2 was subjected to in vitro sumoylation reaction in the presence of E1, Ubc9, and ^35S-Sumos. Reaction was terminated after 10,30,50 or 60 minutes, Proteins were separated on 8% gel, Commassie stained, dryed and exposed overnight (upper panel). Lower panel depicts Commassie blue staining of Mdm2 forms. B. A peptide corresponding to the Ubc-9 binding site on Mdm2 decreases Mdm2 in vitro sumoylation of Mdm2 in a time-dependent manner. (Upper part) The specific Ubc-9-binding site peptide or a nonspecific peptide was added to the reaction for the indicated time periods. […] The lower panel depicts a Coomassie staining visualizing relative amounts of sumoylated and non-sumoylated forms of purified GST-Mdm2. C. The Mdm2 sumoylation assay was carried out in the presence of Ubc-9-binding site peptide (mu9bs) or a nonspecific peptide ([…]) which were added to the reaction at the indicated concentrations. […] D. A peptide corresponding to the Ubc-9 binding site on Mdm2 decreases Mdm2 sumoylation in vivo. […] Immunoprecipitated Mdm2 levels were detected using 2A10 antibodies (top). […]
FIG. 13A-13E. […] (Left) Immunoprecipitated Mdm2 was detected using monoclonal Mdm2 antibodies (2A10, left). […]

Mdm2 [2] = target: T1, Mdm2; assay: Pulse-chase half-life of Mdm2 wt or S218A in normal human fibroblasts; assay type: cell-based; design: Normal human fibroblasts (TIG) were transfected with HA-Ub and wt or mutant Ubc9 plasmids as indicated; endogenous in cells; host or cells: normal human fibroblasts (TIG)
Description: FIG. 16A-16F. A. Activation of p38 increases Mdm2 ubiquitination in vivo. EJ cells were transfected with indicated plasmids. 36 h after transfection cells were harvested and Mdm2 was immunoprecipitated (2A10 antibodies). […] Middle panels show expression levels of Mdm2 and p19^ARF. Lower panels depict phospho-and total p38 levels. B. Mutation at Ser218 of Mdm2 abolishes p38 induced Mdm2 ubiquitination. Normal human fibroblasts were transfected with indicated plasmids. 36 h after transfection cells were harvested and lysed. Mdm2 was immunoprecipitated and proteins were separated on a 8% SDS-PAGE. […] C. Mutation at Ser218 of Mdm2 abrogates p19^ARF-induced Mdm2 degradation. […] Upper panels depict Mdm2-Sumo conjugates (detected via Sumo-1 anitbodies), as well as the 75 kD and 90 kD forms of Mdm2 (detected via Mdm2 antibodies). […] To monitor possible changes in amount of p19 bound to Mdm2 association was monitored using normalized Mdm2 levels at the indicated time-points after UV-treatment.
Normal human fibroblasts (NHF) were transfected with wt or S218A forms of Mdm2 expression vectors (4 μg). ^35S-methionine (1 mCi) was added to the cell cultures 24 h after transfection for 5 h (pulse) followed by chase (2 mM cold methionine) for the indicated time points. […] Immunoprecipated Mdm2 was washed, separated on 10% SDS-PAGE, and analyzed by autoradiography.

T1 sequence (Q00987 whole entry): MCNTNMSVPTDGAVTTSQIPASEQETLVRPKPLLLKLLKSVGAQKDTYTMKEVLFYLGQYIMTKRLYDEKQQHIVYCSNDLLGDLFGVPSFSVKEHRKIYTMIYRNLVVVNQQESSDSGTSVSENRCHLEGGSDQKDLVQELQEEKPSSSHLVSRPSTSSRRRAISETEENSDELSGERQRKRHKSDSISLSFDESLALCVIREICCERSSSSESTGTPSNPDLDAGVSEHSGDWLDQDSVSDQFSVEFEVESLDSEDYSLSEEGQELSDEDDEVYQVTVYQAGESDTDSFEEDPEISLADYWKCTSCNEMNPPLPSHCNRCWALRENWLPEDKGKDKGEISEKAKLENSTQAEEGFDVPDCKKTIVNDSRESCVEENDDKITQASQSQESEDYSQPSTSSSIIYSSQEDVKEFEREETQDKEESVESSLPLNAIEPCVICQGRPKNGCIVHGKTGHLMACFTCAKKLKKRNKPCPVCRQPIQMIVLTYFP

B1: p19^ARF: Mdm2-regulating protein; in vitro translated, bacculovirus-expressed or transfected (protein)
chain: MGRRFLVTVRIQRAGRPLQERVFLVKFVRSRRPRTASCALAFVNMLLRLERILRRGPHRNPGPGDDDGQRSRSSSSAQLRCRFELRGPHYLLPPGARRSAGRLPGHAGGAARVRGSAGCARCLGSPAARLGPRAGTSRHRAIFAFRWVLFVFRWVVFVYRWERRPDRRA
For B1, the “Mdm2 sumoylation in Mdm2/p53-/- cells upon p19ARF co-expression” value (Mdm2 [1]) was “reduced the degree of Mdm2 sumoylation” and the “effect on half-life of wt Mdm2” value (Mdm2 [2]) was “efficiently shorten Mdm2 half-life”.
